These are literature values, as cited in patent US20240325609A1, “POLYPEPTIDE MONOLITHS” (Trustees of Tufts College, priority 2015, published 2024).

The conditions of this series: room temperature for 14 days, not encapsulated.

For “HRP not encapsulated in silk: free horse radish peroxidase enzyme”, the “shelf stability of HRP” value was “not shelf-stable”.
